Measurements: the supplement of paper PMC10724198
± gives the standard deviation of the averaged measurements.

Tested on: Saccharomyces cerevisiae
Test: protein stability index of tFT-peptide fusion (C-terminal peptide) (PSI (0-1 scale)); higher = more stable (slower turnover)
Conditions: temperature: 30 C
Protocol: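 MPS profiling in S. cerevisiae of the yeast C-terminome library: the last 12 aa of each annotated ORF are fused to the C-terminus of a sfGFP-mCherry timer, after a GGGS linker. Cells are FACS-sorted into 8 mCherry/sfGFP bins and deep-sequenced. PSI runs from 0 (unstable) to 1 (stable); wild type and das1Δ backgrounds, two technical replicates each.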

[1] = genetic background: das1 deletion

Row | Sequence | protein stability index [1] | protein stability index (genetic background: wild type)
1 | DTTFTGCTKKIL [YGL102C C-terminal 12 aa] | 0.698 ± 0.023 | 0.66 ± 0.019
2 | DVEVVCRQNNFV [YDR327W C-terminal 12 aa] | 0.723 ± 0.0082 | 0.724 ± 0.025
3 | DYKLLKELASQV [GLT1 C-terminal 12 aa] | 0.66531 ± 0.00065 | 0.635 ± 0.054
4 | DYLYAKDDLLKW [GPP1 C-terminal 12 aa] | 0.7287 ± 0.0048 | 0.709 ± 0.011
5 | EALVKQITSVKQ [SCC4 C-terminal 12 aa] | 0.6973 ± 0.006 | 0.701 ± 0.015
6 | EDGAVGNLFDDN [MSN5 C-terminal 12 aa] | 0.681 ± 0.018 | 0.667 ± 0.033
7 | EDGRPPQNDFKE [TIM22 C-terminal 12 aa] | 0.699 ± 0.0092 | 0.734 ± 0.057
8 | EDHKFDLSTITV [MRPL24 C-terminal 12 aa] | 0.703 ± 0.01 | 0.717 ± 0.023
9 | EDKGLLSCCTVM [YCP4 C-terminal 12 aa] | 0.786 ± 0.011 | 0.743 ± 0.032
10 | EEADSLYISMGL [LCD1 C-terminal 12 aa] | 0.709 ± 0.021 | 0.701 ± 0.012
11 | EEAFGKVQTKTF [SOL3 C-terminal 12 aa] | 0.7098 ± 0.0052 | 0.7564 ± 0.0044
12 | EEFSSGDYSMDY [RIE1 C-terminal 12 aa] | 0.7024 ± 0.006 | 0.66 ± 0.025
13 | EEMIRSSSLYDE [ACA1 C-terminal 12 aa] | 0.7312 ± 0.0059 | 0.711 ± 0.029
14 | EENENDCDSEIQ [RTS1 C-terminal 12 aa] | 0.7103 ± 0.0013 | 0.696 ± 0.0094
15 | EGVRNRRKALKK [ARO3 C-terminal 12 aa] | 0.684 ± 0.027 | 0.669 ± 0.022
16 | EGVSIIESTFIN [YLR225C C-terminal 12 aa] | 0.693 ± 0.012 | 0.68 ± 0.051
17 | EHCPGVNEDDHK [CMG1 C-terminal 12 aa] | 0.703 ± 0.011 | 0.701 ± 0.026
18 | EIKKIYQNEKKI [DPC7 C-terminal 12 aa] | 0.726 ± 0.044 | 0.677 ± 0.029
19 | EILSMPDLSKYQ [SDH5 C-terminal 12 aa] | 0.6922 ± 0.0032 | 0.704 ± 0.044
20 | EINNNLGVRLVD [DMA1 C-terminal 12 aa] | 0.711 ± 0.012 | 0.697 ± 0.026
21 | EIRNMVINSTKD [BFA1 C-terminal 12 aa] | 0.713 ± 0.008 | 0.688 ± 0.021

Row | Sequence | protein stability index [1] | protein stability index (genetic background: wild type)
22 | EKDELDNIEVSK [QCR7 C-terminal 12 aa] | 0.696 ± 0.0052 | 0.683 ± 0.0078
23 | EKFLGKKKTKTD [GPI16 C-terminal 12 aa] | 0.701 ± 0.06 | 0.689 ± 0.05
24 | EKKIATRGAFAC [MCO32 C-terminal 12 aa] | 0.707 ± 0.01 | 0.7 ± 0.012
25 | EKQYVKILDDTH [CSF1 C-terminal 12 aa] | 0.716 ± 0.011 | 0.695 ± 0.037
26 | EKRFPEVMMLEK [FET4 C-terminal 12 aa] | 0.703 ± 0.026 | 0.679 ± 0.0099
27 | EKVNEILRSTEK [GCD14 C-terminal 12 aa] | 0.69 ± 0.0098 | 0.717 ± 0.0097
28 | EKWKINKKETVE [MOD5 C-terminal 12 aa] | 0.697 ± 0.03 | 0.7095 ± 0.0026
29 | ELAYKSFYALLD [VPS28 C-terminal 12 aa] | 0.691 ± 0.019 | 0.702 ± 0.045
30 | ELENEHVPWGKK [HNM1 C-terminal 12 aa] | 0.714 ± 0.032 | 0.667 ± 0.015
31 | ELIISKREIEKE [GEA1 C-terminal 12 aa] | 0.724 ± 0.022 | 0.731 ± 0.079
32 | ELKRSGKLTRSV [TRM7 C-terminal 12 aa] | 0.699 ± 0.0086 | 0.662 ± 0.013
33 | ELLYLIIAGLHI [FYV5 C-terminal 12 aa] | 0.6959 ± 0.0029 | 0.7 ± 0.05
34 | ELRERLLRPSKK [YPL245W C-terminal 12 aa] | 0.7246 ± 0.0023 | 0.771 ± 0.032
35 | ELTKQHGNKDSN [RTK1 C-terminal 12 aa] | 0.7 ± 0.025 | 0.659 ± 0.0056
36 | ENDDHLYIFGRN [TIM18 C-terminal 12 aa] | 0.743 ± 0.033 | 0.731 ± 0.045
37 | ENVEEDKEVHTN [PBI2 C-terminal 12 aa] | 0.675 ± 0.036 | 0.6976 ± 0.0046
38 | EPSLRGHLIFVL [YBR300C C-terminal 12 aa] | 0.515 ± 0.0098 | 0.5178 ± 0.0049
39 | EQAAKYIEYLNL [RAD10 C-terminal 12 aa] | 0.817 ± 0.019 | 0.603 ± 0.045
40 | EQEVIFTDLTAY [ECM32 C-terminal 12 aa] | 0.742 ± 0.015 | 0.7 ± 0.012
41 | EQHNVLDTKKNE [SPC2 C-terminal 12 aa] | 0.687 ± 0.037 | 0.649 ± 0.029
42 | ERDGYYYLKRSS [VHT1 C-terminal 12 aa] | 0.715 ± 0.019 | 0.694 ± 0.02

Row | Sequence | protein stability index [1] | protein stability index (genetic background: wild type)
43 | EREVNPSARSLG [YLR184W C-terminal 12 aa] | 0.694 ± 0.028 | 0.684 ± 0.013
44 | ESKKTKGEELTL [ARG1 C-terminal 12 aa] | 0.6793 ± 0.0016 | 0.669 ± 0.015
45 | ESLSNEAALKAN [RPO31 C-terminal 12 aa] | 0.676 ± 0.027 | 0.397 ± 0.017
46 | ESPTEDSVPHAE [CSA1 C-terminal 12 aa] | 0.709 ± 0.018 | 0.687 ± 0.032
47 | ESSARRDRKEHI [TMA23 C-terminal 12 aa] | 0.679 ± 0.035 | 0.701 ± 0.041
48 | ETDSESEVESIM [SYG1 C-terminal 12 aa] | 0.697 ± 0.036 | 0.675 ± 0.025
49 | EVKVDKVVYEKE [VPS29 C-terminal 12 aa] | 0.683 ± 0.067 | 0.725 ± 0.04
50 | EVSTEDTVHDEL [EUG1 C-terminal 12 aa] | 0.675 ± 0.0097 | 0.683 ± 0.041
51 | EYLQSMKTSINR [SFB2 C-terminal 12 aa] | 0.69 ± 0.024 | 0.695 ± 0.024
52 | FARFITAIFHHI [MKC7 C-terminal 12 aa] | 0.73 ± 0.019 | 0.153 ± 0.0061
53 | FDALMNNDGDSD [TIF4632 C-terminal 12 aa] | 0.68 ± 0.016 | 0.6696 ± 0.0037
54 | FDDSSSVSSKSD [GPC1 C-terminal 12 aa] | 0.717 ± 0.014 | 0.695 ± 0.027
55 | FDRVRLLVDKIT [HIR3 C-terminal 12 aa] | 0.683 ± 0.0076 | 0.234 ± 0.0042
56 | FDSNVSVAVDER [SET5 C-terminal 12 aa] | 0.699 ± 0.022 | 0.651 ± 0.027
57 | FFLEECHRIGSK [HEM12 C-terminal 12 aa] | 0.726 ± 0.015 | 0.7467 ± 0.007
58 | FGGVRSPKMRRL [MRPS18 C-terminal 12 aa] | 0.72 ± 0.017 | 0.681 ± 0.042
59 | FGSNVNQQFNFN [SRP1 C-terminal 12 aa] | 0.723 ± 0.0085 | 0.719 ± 0.032
60 | FHHMLIFIILKL [PRM2 C-terminal 12 aa] | 0.203 ± 0.013 | 0.193 ± 0.028
61 | FIVAEYIQQKKV [SRB4 C-terminal 12 aa] | 0.694 ± 0.018 | 0.3321 ± 0.00069
62 | FKMCETEMQPIK [YGR201C C-terminal 12 aa] | 0.7043 ± 0.0065 | 0.669 ± 0.013
63 | FLDDVLNGREII [YNL058C C-terminal 12 aa] | 0.708 ± 0.011 | 0.752 ± 0.015

Row | Sequence | protein stability index [1] | protein stability index (genetic background: wild type)
64 | FNNILTKEMQKI [CLD1 C-terminal 12 aa] | 0.701 ± 0.031 | 0.717 ± 0.049
65 | FNVTKKSLTNHS [CDS1 C-terminal 12 aa] | 0.6978 ± 0.0048 | 0.742 ± 0.049
66 | FPVKSSPNAHTA [YLR334C C-terminal 12 aa] | 0.707 ± 0.018 | 0.687 ± 0.026
67 | FPWSHGTCIRGA [YOR376W C-terminal 12 aa] | 0.696 ± 0.013 | 0.688 ± 0.01
68 | FQREQVAKGGLL [CHL4 C-terminal 12 aa] | 0.717 ± 0.016 | 0.69 ± 0.057
69 | FRRRLGDRFKKD [MRX7 C-terminal 12 aa] | 0.6895 ± 0.0044 | 0.695 ± 0.017
70 | FSYIRSKQMQQK [MNE1 C-terminal 12 aa] | 0.746 ± 0.031 | 0.6666 ± 0.0065
71 | FTNALKNMYFSA [YJR037W C-terminal 12 aa] | 0.709 ± 0.0094 | 0.585 ± 0.019
72 | FVYERMKWNFGI [LEU5 C-terminal 12 aa] | 0.7059 ± 0.0044 | 0.275 ± 0.025
73 | FWHEVVVFPIPN [YDR015C C-terminal 12 aa] | 0.717 ± 0.017 | 0.716 ± 0.062
74 | GAGVVAAAAMLL [TIR1 C-terminal 12 aa] | 0.7182 ± 0.0061 | 0.713 ± 0.016
75 | GAGWSGFKKVFK [GYL1 C-terminal 12 aa] | 0.692 ± 0.013 | 0.722 ± 0.042
76 | GAHDDMDNGDDW [LAS17 C-terminal 12 aa] | 0.689 ± 0.01 | 0.663 ± 0.015
77 | GAIYVLQWANPT [YBR287W C-terminal 12 aa] | 0.667 ± 0.025 | 0.662 ± 0.061
78 | GATEKRKCAKPF [CSL4 C-terminal 12 aa] | 0.674 ± 0.033 | 0.687 ± 0.029
79 | GDDDIDDDDDMI [TVP15 C-terminal 12 aa] | 0.691 ± 0.023 | 0.677 ± 0.023
80 | GEDEENTVDSQY [YOL131W C-terminal 12 aa] | 0.688 ± 0.015 | 0.6803 ± 0.0017
81 | GEDVLEGGCLLI [YIR023C-A C-terminal 12 aa] | 0.708 ± 0.051 | 0.727 ± 0.057
82 | GELSVDEKKKIY [ERV29 C-terminal 12 aa] | 0.6932 ± 0.00077 | 0.657 ± 0.041
